The subject of data set [1] is Aspergillus terreus var. aureus FAD-GDH (flavin adenine dinucleotide glucose dehydrogenase), enzyme No. 1, host Pichia pastoris. Nature of the data set: Michaelis constant of FAD-GDH enzyme No. 1. In kind it is biochemical. The following applies: 110 kDa.
Substrate in data set [2]: OC[C@H]1OC(O)[C@H](O)[C@@H](O)[C@@H]1O
Put plainly: Michaelis constant of FAD-GDH enzyme No. 2. In kind it is biochemical, Thermoascus crustaceus. The note with it: other: enzyme No. 2, host Escherichia coli, 60 kDa.

Substrate in data set [3]: OC[C@H]1OC(O)[C@H](O)[C@@H](O)[C@@H]1O
Nature of the data set: Michaelis constant of FAD-GDH enzyme No. 4. The class given is biochemical, Thermoascus crustaceus. The following applies: other: enzyme No. 4, host Saccharomyces cerevisiae, 90 kDa.

Substrate in data set [4]: OC[C@H]1OC(O)[C@H](O)[C@@H](O)[C@@H]1O
Put plainly: Michaelis constant of FAD-GDH enzyme No. 3. The class given is biochemical, Thermoascus crustaceus. The note with it: other: enzyme No. 3, host Pichia pastoris, 90 kDa.

As for `OC[C@H]1OC(O)[C@H](O)[C@@H](O)[C@@H]1O` (stereo partly shown) [glucose], the Michaelis-Menten constant (Km) in data set [1] was 82 mM.

B1: Thermoascus crustaceus FAD-GDH (flavin adenine dinucleotide glucose dehydrogenase), enzyme No. 2, host Escherichia coli (Thermoascus crustaceus) (protein)
chain: TSYDYIIVGGGTSGLVVANRLSEDSSVSVLVVEAGDSVYNNPNVTGTGAYGAAFGTSIDWAYQTIKQPYAGDLTQTIRAGKALGGTSTINGMAYTRAEDVQIDAWEAIGNQGWNWSTLFPYYLKSERFQIPINAQSAAGANWNPAYHGMNGPLTTGWTYEMMNGSMAEVLNATYQNLGISYLPDVNGGKMHGYTLFPRTVNRALDVREDAARAYYYPFESSRPNLSVMLNTYGNRIVWANATNTNSVTATGVEVTLSDGTVQTIQANKEVILSAGSLISPAILERSGVGNPTVLSRFGIPLVVNLTTVGENLQDQMNTEFIYLSNATFSGQSTFLGHPTAADLFGSNVTNVAKSVQSSLPHYAATVSEASNGTMSAAVLQKLFQLQYNIIFNNPTPIAEILVAPSGSKFITEYWALLPFARGNVHIGSANPLDRPVINPNYMMFEWDMQEQIASGKFVRKLYGTAPFTNWATGEATPGYSTLPANATDGQWAQWISSVSRSNFHPVGTAAMMPRDMGGVVDSNLVVYGTNNVRVIDASVLPLQVCGHLVSTLYAVAERASDLIKAGQV
Regarding B1, the Michaelis constant (Km) in data set [2] stood at 4.6 mM.

B2: Thermoascus crustaceus FAD-GDH (flavin adenine dinucleotide glucose dehydrogenase), enzyme No. 4, host Saccharomyces cerevisiae (Thermoascus crustaceus) (protein)
chain: TSYDYIIVGGGTSGLVVANRLSEDSSVSVLVVEAGDSVYNNPNVTGTGAYGAAFGTSIDWAYQTIKQPYAGDLTQTIRAGKALGGTSTINGMAYTRAEDVQIDAWEAIGNQGWNWSTLFPYYLKSERFQIPINAQSAAGANWNPAYHGMNGPLTTGWTYEMMNGSMAEVLNATYQNLGISYLPDVNGGKMHGYTLFPRTVNRALDVREDAARAYYYPFESSRPNLSVMLNTYGNRIVWANATNTNSVTATGVEVTLSDGTVQTIQANKEVILSAGSLISPAILERSGVGNPTVLSRFGIPLVVNLTTVGENLQDQMNTEFIYLSNATFSGQSTFLGHPTAADLFGSNVTNVAKSVQSSLPHYAATVSEASNGTMSAAVLQKLFQLQYNIIFNNPTPIAEILVAPSGSKFITEYWALLPFARGNVHIGSANPLDRPVINPNYMMFEWDMQEQIASGKFVRKLYGTAPFTNWATGEATPGYSTLPANATDGQWAQWISSVSRSNFHPVGTAAMMPRDMGGVVDSNLVVYGTNNVRVIDASVLPLQVCGHLVSTLYAVAERASDLIKAGQV
For the molecule B2, in data set [3], the Km is reported as 3.2 mM.

B3: Thermoascus crustaceus FAD-GDH (flavin adenine dinucleotide glucose dehydrogenase), enzyme No. 3, host Pichia pastoris (Thermoascus crustaceus) (protein)
chain: TSYDYIIVGGGTSGLVVANRLSEDSSVSVLVVEAGDSVYNNPNVTGTGAYGAAFGTSIDWAYQTIKQPYAGDLTQTIRAGKALGGTSTINGMAYTRAEDVQIDAWEAIGNQGWNWSTLFPYYLKSERFQIPINAQSAAGANWNPAYHGMNGPLTTGWTYEMMNGSMAEVLNATYQNLGISYLPDVNGGKMHGYTLFPRTVNRALDVREDAARAYYYPFESSRPNLSVMLNTYGNRIVWANATNTNSVTATGVEVTLSDGTVQTIQANKEVILSAGSLISPAILERSGVGNPTVLSRFGIPLVVNLTTVGENLQDQMNTEFIYLSNATFSGQSTFLGHPTAADLFGSNVTNVAKSVQSSLPHYAATVSEASNGTMSAAVLQKLFQLQYNIIFNNPTPIAEILVAPSGSKFITEYWALLPFARGNVHIGSANPLDRPVINPNYMMFEWDMQEQIASGKFVRKLYGTAPFTNWATGEATPGYSTLPANATDGQWAQWISSVSRSNFHPVGTAAMMPRDMGGVVDSNLVVYGTNNVRVIDASVLPLQVCGHLVSTLYAVAERASDLIKAGQV
In the case of B3, in data set [4], the Km is recorded as 2.8 mM.

One may read the Km as the substrate concentration at which the rate is half of its maximum.

The record behind these values is US20190194714A1, “REAGENT FOR GLUCOSE SENSOR, GLUCOSE SENSOR, METHOD FOR MANUFACTURING GLUCOSE SENSOR, AND GLUCOSE MEASURING DEVICE” (NATIONAL INSTITUTE OF ADVANCED INDUSTRIAL SCIENCE AND …, priority 2016, published 2019).
